Measured values reported in US20250002588A1 (DIAGONAL THERAPEUTICS, published 2025).
Where two headings read alike, the source gives them in different places.

Experiments:
[1] = molecular target: T1, ALK-1/BMPR-2 receptor pair of the PathHunter U2Os dimerization cells (DiscoverX 93-0962C3) (UniProt P37023 22-503; Q13873 27-1038); experiment: cell-based or functional assay
Target sequence in this assay (P37023 22-503, chain 1 of 2): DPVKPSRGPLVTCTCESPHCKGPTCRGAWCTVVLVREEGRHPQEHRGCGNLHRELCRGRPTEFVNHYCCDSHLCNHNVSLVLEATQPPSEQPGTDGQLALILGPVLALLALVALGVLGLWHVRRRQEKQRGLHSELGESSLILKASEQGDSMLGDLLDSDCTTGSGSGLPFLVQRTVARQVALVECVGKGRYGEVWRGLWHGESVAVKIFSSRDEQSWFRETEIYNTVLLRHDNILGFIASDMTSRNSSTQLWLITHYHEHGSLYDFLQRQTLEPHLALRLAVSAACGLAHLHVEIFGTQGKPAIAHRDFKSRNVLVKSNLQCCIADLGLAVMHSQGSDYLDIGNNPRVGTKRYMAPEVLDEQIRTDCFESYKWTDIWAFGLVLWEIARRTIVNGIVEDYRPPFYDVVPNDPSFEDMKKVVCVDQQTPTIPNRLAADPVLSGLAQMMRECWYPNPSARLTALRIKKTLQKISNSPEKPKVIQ
Target sequence in this assay (Q13873 27-1038, chain 2 of 2): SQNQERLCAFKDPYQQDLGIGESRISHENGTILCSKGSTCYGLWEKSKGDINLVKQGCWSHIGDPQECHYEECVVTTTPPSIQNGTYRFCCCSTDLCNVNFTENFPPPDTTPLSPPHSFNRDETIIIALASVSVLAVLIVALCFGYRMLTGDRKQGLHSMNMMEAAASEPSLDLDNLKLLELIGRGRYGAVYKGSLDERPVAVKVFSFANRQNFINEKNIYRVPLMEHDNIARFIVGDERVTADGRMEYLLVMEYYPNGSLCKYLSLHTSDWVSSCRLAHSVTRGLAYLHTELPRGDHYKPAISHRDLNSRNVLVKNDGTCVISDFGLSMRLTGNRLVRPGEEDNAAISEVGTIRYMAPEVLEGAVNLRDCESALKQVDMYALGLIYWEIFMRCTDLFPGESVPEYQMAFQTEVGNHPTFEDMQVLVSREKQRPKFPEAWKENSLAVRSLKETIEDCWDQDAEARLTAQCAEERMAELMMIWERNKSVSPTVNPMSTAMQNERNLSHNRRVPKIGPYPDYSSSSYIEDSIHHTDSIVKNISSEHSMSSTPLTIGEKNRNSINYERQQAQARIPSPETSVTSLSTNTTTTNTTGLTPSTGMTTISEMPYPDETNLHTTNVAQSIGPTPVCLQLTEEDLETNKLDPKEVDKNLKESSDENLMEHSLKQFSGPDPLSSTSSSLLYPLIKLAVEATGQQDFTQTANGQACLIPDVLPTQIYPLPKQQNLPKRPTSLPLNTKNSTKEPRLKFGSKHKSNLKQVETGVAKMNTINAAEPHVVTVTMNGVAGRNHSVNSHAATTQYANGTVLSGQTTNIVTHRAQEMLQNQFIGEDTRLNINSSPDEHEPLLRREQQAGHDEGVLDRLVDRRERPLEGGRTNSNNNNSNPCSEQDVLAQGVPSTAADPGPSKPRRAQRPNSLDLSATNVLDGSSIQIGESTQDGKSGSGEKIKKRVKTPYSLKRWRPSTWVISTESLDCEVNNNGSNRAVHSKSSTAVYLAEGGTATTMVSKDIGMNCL

[2] = molecular target: T1, ALK-1/BMPR-2 receptor pair of the …; experiment: cell-based or functional assay; remark: listed apart in the source

| Binder | % Emax BMP9 [1] [%] | EC50 [1] [nM] | Emax (RLU) [1] [RLU] | % Emax BMP9 [2] [%] | Emax (RLU) [2] [RLU] |
| --- | --- | --- | --- | --- | --- |
| PRO006 (bispecific antibody) EVQLLESGGGLVQPGGSLRLSCAASGFTFSDYYMTWIRQAPGKGLEWVSSISGGSTYYADSRKGRFTISRDNSENTLYLQMNSLRAEDTAVYYCARDFGVAGWFGQYGMDVWGQGTLVTVSSGGGGSGGGGSGGGGSQSVLTQPPSASGTPGQRVTISCTGSSSNIGAGYDVHWYQQLPGTAPKLLIYRSNQRPSGVPDRFSGSKSGTSASLAISGLRSEDEADYYCSSYAGNYNLVFGGGTKLTVLDKTHTCPPCPAPEAAGAPSVFLFPPKPKDTLMISRTPEVTCVVVDVSHEDPEVKFNWYVDGVEVHNAKTKPREEQYNSTYRVVSVLTVLHQDWLNGKEYKCKVSNKALPAPIEKTISKAKGQPREPQVYTLPPSRDELTKNQVSLTCLVKGFYPSDIAVEWESNGQPENNYKTTPPVLDSDGSFFLYSKLTVDKSRWQQGNVFSCSVMHEALHNHYTQKSLSLSPGGGGGSGGGGSEVQLLESGGGLVQPGGSLRLSCAASGFTFSSYAMSWVRQAPGKGLEWVANINQDGSEKNYVDSMRGRFTISRDNSKNTLYLQMNSLRAEDTAVYYCAREFDYWGQGTLVTVTSSGGGGSGGGGSGGGGSQSVLAQPPSASGTPGQRVTISCSGSSSNIGSNYVYWYQQLPGTAPKLLIYGNNKRPSGVPDRFSGSKSGTSASLAISGLRSEDEADYYCAAWDDSLNGRVFGGGTKLTVL | 35 | 0.1 | 929000 |  |  |
| PRO003 (bispecific antibody) EVQLLESGGGLVQPGGSLRLSCAASGFTFSIYAMSWVRQAPGKGLEWVSAISGSGGSTYYADSVKGRFTISRDNSKNTLYLQMNSLRAEDTAVYYCARDFDYWGQGTLVTVTSSGGGGSGGGGSGGGGSQSVLTQPPSASGTPGQRVTISCSGSSSNIGSNYVYWYQQLPGTAPKLLIYGNINRPSGVPDRFSGSKSGTSASLAISGLRSEDEADYYCAAWDDSLNGRVFGGGTKLTVLDKTHTCPPCPAPEAAGAPSVFLFPPKPKDTLMISRTPEVTCVVVDVSHEDPEVKFNWYVDGVEVHNAKTKPREEQYNSTYRVVSVLTVLHQDWLNGKEYKCKVSNKALPAPIEKTISKAKGQPREPQVYTLPPSRDELTKNQVSLTCLVKGFYPSDIAVEWESNGQPENNYKTTPPVLDSDGSFFLYSKLTVDKSRWQQGNVFSCSVMHEALHNHYTQKSLSLSPGGGGGSGGGGSEVQLLESGGGLVQPGGSLRLSCAASGFTFSNAWMNWVRQAPGKGLEWVSSISSSSSYIYYADSVKGRFTISRDNSKNTLYLQMNSLRAEDTAVYYCARAVAAGGMFWGLDQWGQGTLVTVTSSGGGGSGGGGSGGGGSQSVLTQPPSASGTPGQRVTISCSGSRSNIGSNSVHWYQQLPGTAPKLLIYGNSNRPSGVPDRFSGSKSGTSASLAISGLRSEDEADYYCQSYDSSLNDHVVFGGGTKLTVL | 47 | 0.1 | 1.25e+06 |  |  |
| PRO004 (bispecific antibody) EVQLLESGGGLVQPGGSLRLSCAASGFTFSNAWMNWVRQAPGKGLEWVSSISSSSSYIYYADSVKGRFTISRDNSKNTLYLQMNSLRAEDTAVYYCARAVAAGGMFWGLDQWGQGTLVTVTSSGGGGSGGGGSGGGGSQSVLTQPPSASGTPGQRVTISCSGSRSNIGSNSVHWYQQLPGTAPKLLIYGNSNRPSGVPDRFSGSKSGTSASLAISGLRSEDEADYYCQSYDSSLNDHVVFGGGTKLTVLDKTHTCPPCPAPEAAGAPSVFLFPPKPKDTLMISRTPEVTCVVVDVSHEDPEVKFNWYVDGVEVHNAKTKPREEQYNSTYRVVSVLTVLHQDWLNGKEYKCKVSNKALPAPIEKTISKAKGQPREPQVYTLPPSRDELTKNQVSLTCLVKGFYPSDIAVEWESNGQPENNYKTTPPVLDSDGSFFLYSKLTVDKSRWQQGNVFSCSVMHEALHNHYTQKSLSLSPGGGGGSGGGGSEVQLLESGGGLVQPGGSLRLSCAASGFTFSIYAMSWVRQAPGKGLEWVSAISGSGGSTYYADSVKGRFTISRDNSKNTLYLQMNSLRAEDTAVYYCARDFDYWGQGTLVTVTSSGGGGSGGGGSGGGGSQSVLTQPPSASGTPGQRVTISCSGSSSNIGSNYVYWYQQLPGTAPKLLIYGNINRPSGVPDRFSGSKSGTSASLAISGLRSEDEADYYCAAWDDSLNGRVFGGGTKLTVL | 46 | 0.5 | 1.21e+06 |  |  |
| PRO005 (bispecific antibody) EVQLLESGGGLVQPGGSLRLSCAASGFTFSSYAMSWVRQAPGKGLEWVANINQDGSEKNYVDSMRGRFTISRDNSKNTLYLQMNSLRAEDTAVYYCAREFDYWGQGTLVTVTSSGGGGSGGGGSGGGGSQSVLAQPPSASGTPGQRVTISCSGSSSNIGSNYVYWYQQLPGTAPKLLIYGNNKRPSGVPDRFSGSKSGTSASLAISGLRSEDEADYYCAAWDDSLNGRVFGGGTKLTVLDKTHTCPPCPAPEAAGAPSVFLFPPKPKDTLMISRTPEVTCVVVDVSHEDPEVKFNWYVDGVEVHNAKTKPREEQYNSTYRVVSVLTVLHQDWLNGKEYKCKVSNKALPAPIEKTISKAKGQPREPQVYTLPPSRDELTKNQVSLTCLVKGFYPSDIAVEWESNGQPENNYKTTPPVLDSDGSFFLYSKLTVDKSRWQQGNVFSCSVMHEALHNHYTQKSLSLSPGGGGGSGGGGSEVQLLESGGGLVQPGGSLRLSCAASGFTFSDYYMTWIRQAPGKGLEWVSSISGGSTYYADSRKGRFTISRDNSENTLYLQMNSLRAEDTAVYYCARDFGVAGWFGQYGMDVWGQGTLVTVSSGGGGSGGGGSGGGGSQSVLTQPPSASGTPGQRVTISCTGSSSNIGAGYDVHWYQQLPGTAPKLLIYRSNQRPSGVPDRFSGSKSGTSASLAISGLRSEDEADYYCSSYAGNYNLVFGGGTKLTVL | 35 | 0.075 | 931000 |  |  |
| DGL893 (bispecific antibody) chain 1: not shown chain 2: EVQLLESGGGLVQPGGSLRLSCAASGFTFSDYYMTWIRQAPGKGLEWVSSISGGSTYYADSRKGRFTISRDNSENTLYLQMNSLRAEDTAVYYCARDFGVSGWFGQYGMDVWGQGTLVTVSSGGGGSGGGGSGGGGSQSVLTQPPSASGTPGQRVTISCTGSSSNIGAGYDVHWYQQLPGTAPKLLIYRSNQRPSGVPDRFSGSKSGTSASLAISGLRSEDEADYYCSSYAGNYNLVFGGGTKLTVLDKTHTCPPCPAPEAAGAPSVFLFPPKPKDTLMISRTPEVTCVVVDVSHEDPEVKFNWYVDGVEVHNAKTKPREEQYNSTYRVVSVLTVLHQDWLNGKEYKCKVSNKALPAPIEKTISKAKGQPREPQVCTLPPSRDELTKNQVSLSCAVKGFYPSDIAVEWESNGQPENNYKTTPPVLDSDGSFFLVSKLTVDKSRWQQGNVFSCSVMHEALHNHYTQKSLSLSPGWSHPQFEK |  |  |  | 20 | 552000 |
| DGL894 (bispecific antibody) chain 1: not shown chain 2: EVQLLESGGGLVQPGGSLRLSCAASGFTFSDYWMTWIRQAPGKGLEWVSSISGGSTYYADSRKGRFTISRDNSENTLYLQMNSLRAEDTAVYYCARDFGVAGWFGQYGMDVWGQGTLVTVSSGGGGSGGGGSGGGGSQSVLTQPPSASGTPGQRVTISCTGSSSNIGAGYDVHWYQQLPGTAPKLLIYRSNQRPSGVPDRFSGSKSGTSASLAISGLRSEDEADYYCSSYAGNYNLVFGGGTKLTVLDKTHTCPPCPAPEAAGAPSVFLFPPKPKDTLMISRTPEVTCVVVDVSHEDPEVKFNWYVDGVEVHNAKTKPREEQYNSTYRVVSVLTVLHQDWLNGKEYKCKVSNKALPAPIEKTISKAKGQPREPQVCTLPPSRDELTKNQVSLSCAVKGFYPSDIAVEWESNGQPENNYKTTPPVLDSDGSFFLVSKLTVDKSRWQQGNVFSCSVMHEALHNHYTQKSLSLSPGWSHPQFEK |  |  |  | 14 | 383000 |
| DGL895 (bispecific antibody) chain 1: not shown chain 2: EVQLLESGGGLVQPGGSLRLSCAASGFTFSDYYMTWIRQAPGKGLEWVSSISGGTTYYADSRKGRFTISRDNSENTLYLQMNSLRAEDTAVYYCARDFGVAGWFGQYGMDVWGQGTLVTVSSGGGGSGGGGSGGGGSQSVLTQPPSASGTPGQRVTISCTGSSSNIGAGYDVHWYQQLPGTAPKLLIYRSNQRPSGVPDRFSGSKSGTSASLAISGLRSEDEADYYCSSYAGNYNLVFGGGTKLTVLDKTHTCPPCPAPEAAGAPSVFLFPPKPKDTLMISRTPEVTCVVVDVSHEDPEVKFNWYVDGVEVHNAKTKPREEQYNSTYRVVSVLTVLHQDWLNGKEYKCKVSNKALPAPIEKTISKAKGQPREPQVCTLPPSRDELTKNQVSLSCAVKGFYPSDIAVEWESNGQPENNYKTTPPVLDSDGSFFLVSKLTVDKSRWQQGNVFSCSVMHEALHNHYTQKSLSLSPGWSHPQFEK |  |  |  | 26 | 715000 |
| DGL896 (bispecific antibody) chain 1: not shown chain 2: EVQLLESGGGLVQPGGSLRLSCAASGFTFSDYWMTWIRQAPGKGLEWVSSISGGTTYYADSRKGRFTISRDNSENTLYLQMNSLRAEDTAVYYCARDFGVSGWFGQYGMDVWGQGTLVTVSSGGGGSGGGGSGGGGSQSVLTQPPSASGTPGQRVTISCTGSSSNIGAGYDVHWYQQLPGTAPKLLIYRSNQRPSGVPDRFSGSKSGTSASLAISGLRSEDEADYYCSSYAGNYNLVFGGGTKLTVLDKTHTCPPCPAPEAAGAPSVFLFPPKPKDTLMISRTPEVTCVVVDVSHEDPEVKFNWYVDGVEVHNAKTKPREEQYNSTYRVVSVLTVLHQDWLNGKEYKCKVSNKALPAPIEKTISKAKGQPREPQVCTLPPSRDELTKNQVSLSCAVKGFYPSDIAVEWESNGQPENNYKTTPPVLDSDGSFFLVSKLTVDKSRWQQGNVFSCSVMHEALHNHYTQKSLSLSPGWSHPQFEK |  |  |  | 10 | 282000 |
| DGL897 (bispecific antibody) chain 1: not shown chain 2: EVQLLESGGGLVQPGGSLRLSCAASGFTFSDYYMTWIRQAPGKGLEWVSSISGGSTYYADSRKGRFTISRDNSENTLYLQMNSLRAEDTAVYYCARDFGVSGWFGQYGMDVWGQGTLVTVSSGGGGSGGGGSGGGGSQSVLTQPPSASGTPGQRVTISCTGSSSNIGAGYDVHWYQQLPGTAPKLLIYRSNQRPSGVPDRFSGSKSGTSASLAISGLRSEDEADYYCSSYAGNYNLVFGGGTKLTVLDKTHTCPPCPAPEAAGAPSVFLFPPKPKDTLMISRTPEVTCVVVDVSHEDPEVKFNWYVDGVEVHNAKTKPREEQYNSTYRVVSVLTVLHQDWLNGKEYKCKVSNKALPAPIEKTISKAKGQPREPQVCTLPPSRDELTKNQVSLSCAVKGFYPSDIAVEWESNGQPENNYKTTPPVLDSDGSFFLVSKLTVDKSRWQQGNVFSCSVMHEALHNHYTQKSLSLSPGWSHPQFEK |  |  |  | 26 | 701000 |
